Residue numbers refer to the chain shown, from its start.
T1: 人OX40 expressed on cells (表达OX40的CHO细胞; OX40过表达的功能细胞系) (human, UniProt P43489 29-277)
T1 sequence (looked up): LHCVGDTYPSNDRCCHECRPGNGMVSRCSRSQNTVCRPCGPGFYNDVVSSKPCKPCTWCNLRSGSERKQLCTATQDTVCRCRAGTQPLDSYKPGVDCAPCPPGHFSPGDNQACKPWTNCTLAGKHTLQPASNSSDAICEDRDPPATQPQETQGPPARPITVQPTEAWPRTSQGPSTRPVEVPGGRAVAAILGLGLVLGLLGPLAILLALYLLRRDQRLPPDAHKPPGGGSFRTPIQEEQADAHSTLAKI

B1: 83C2H3B6 (antibody, V domains shown)
VH: QVQLKQSGPGLVQPSQSLSITCTVSGFSLTSYGVHWVRQSPGKGLEWLGVIWSGGSTDYNAAYISRLSISKDNSKSQVFFKMNSLQADDTATYYCANYDYDVPYWGQGTLVTVSA
VL: DIQMTQSPASQSASLGESVTITCLASQTIGTWLAWYQQKPGKSPQLLIYAATSLADGVPSRFSGSGSGTKFSFKISSLQAEDFVSYYCQQLYSTPFTFGSGTKLEIK
B2: OX40L (ligand, UniProt P23510 51-183, looked up)
chain: QVSHRYPRIQSIKVQFTEYKKEKGFILTSQKEDEIMKVQNNSVIINCDGFYLISLKGYFSQEVNISLHYQKDEEPLFQLKKVRSVNSLMVASLTYKDKVYLNVTTDNTSLDDFHVNGGELILIHQNPGEFCVL
B3: 9G4C8B11 (antibody, V domains shown)
VH: DVQLQESGPGLVKPSQSLSLTCSVTGYSITSGYYWNWIRQFPGNKLEWMGYISYDGSNNYNPSLKNRISITRDTSKNQFFLKLNSVTTEDTATYYCARDRAYYSNYVGWYFDVWGTGTTVTVSS
VL: DIVLTQSPASLAVSLGQRATISCRASESVDNYGNSFMHWYQQTPGQPPKLLIYRASNLESGIPAKFSGSGSRTDFTLTINPVEADDVATYYCQQSNEDPLTFGAGTKLELK
B4: 51E2G12D6 (antibody, V domains shown)
VH: QVTLKESGPGILQPSQTLSLTCSFSGFSLDTSGMGVTWIRQPSGKGLEWLAHIYWDDDKHYNPSLKSRLTISKDTSSTQVLLKITSVVTADTATYYCARRALGAMDYWGQGTSVTVSS
VL: DIQMTQTTSSLSASLGDRVTISCRASQDISHYLNWYQQKPDGTVKLLIYYTSTLHSGVPSRFSGSGSGTDYSLTISNLEQEDIATYFCQQGKTLPPTFGAGTELELK
B5: 68G8C4B12 (antibody, V domains shown)
VH: QVQLKESGPGLVAPSQSLSITCTVSGFSLTNYGVHWVRQPPGKGLEWLGVIWDDGNTNYNSALMSRLSINKDNSKSQVFVTMNSLQIDDTAMYYCALFDGYYGWFAYWGQGTLVTVSS
VL: B4 VL with H31F, T53R, I83F, K92H, P96W, A100G, T102S, E103K, L106I
B6: 99A2A8D4E8 (antibody, V domains shown)
VH: QIQLVQSGPELKKPGETVKISCKASGYTFTDYSMHWVKQAPGKGLKWMGWISTETGEPTYADDFKGRFAFSLETSASTAYLQIKNLKNEDTASYFCARVRPWYLAVWGAGTTVTVSS
VL: B4 VL with H31N, T53R, H55Y, T69A, I75V, G91A, K92N, P96L, E103K
B7: 17B12G2C3 (antibody, V domains shown)
VH: EVQLQQSGPELVKPGASVKISCKASGYTFTDYYMNWVKQSHGKSLEWIGDINPNNGGTNYNQKFKGKATLTVDKSSSTTYMELRSLTSEDSAVYYCARSGGWLLQDYWGQGTTLTVSS
VL: B4 VL with S22T, Q27L, H31N, L46F, T53R, K92N, P96Y, A100G, E103K, L106I

These binders were tested against T1, 人OX40 expressed on cells (表达OX40的CHO细胞; …) (assay: cell-based or functional assay).

inhibition of IL-8 secretion by OX40 over-expressing functional cell line, IC50 | IL-8 secretion by OX40 over-expressing functional cell line (activation), EC50 | inhibition of IL-8 secretion by OX40 over-expressing functional cell line, given as EC50 | Binder
68 nM |  |  | B1
 | 2.18 nM |  | B2
 | 6.5 nM |  | B3
1.45 nM |  |  | B4
 |  | 2.36 nM | B5
 | 0.58 nM |  | B6
8.23 nM |  |  | B7

These binders were tested against T1, 人OX40 expressed on cells (表达OX40的CHO细胞; …) (assay: flow cytometry on OX40-expressing CHO cells, 5 μg/ml antibody).

结合信号值 relative to control sample (fold) | Binder
200 fold | B1
200 fold | B3
200 fold | B4
200 fold | B5
200 fold | B6
200 fold | B7

Source: patent CN109232738A (GENSCRIPT NANJING CO LTD, dated 2019)
